Measured values from the nanobody polyreactivity screen of Harvey et al. (2022).

Experiment: yeast display, Sf9 membrane polyspecificity reagent, FACS + sequencing; frameworks hold sequencing errors
Outline: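 Nanobodies from a synthetic yeast display library (Saccharomyces cerevisiae BJ5465), induced 36–48 hours with galactose, were stained 1 hour at 4 °C with 10% biotinylated, detergent-solubilized Sf9 membrane reagent, enriched on streptavidin microbeads, then FACS-sorted. Anti-HA (expression) and streptavidin (reagent binding) fluorescence set low and high (top ~1%) gates. Polyreactivity labels come from the gate of origin. Genes were colony-PCR amplified, MiSeq 2 × 250 sequenced and filtered by CDR length.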

Sequence | polyreactivity (PSR sort gate)
QVHLVESRGGLVQAGGSLSLSCAASGITFYIYAMGWYRQAHGKERELVAAFTTSGDSTYYADSVKGRFTISRDNAKNTVYLQMNSLKPEDTAVYDCAAEYWYTYSWGQGTQVTVLS | low polyreactivity
QVHLVESVGGLVQAGGSLRLSCAASGSIFDVYTMGCYRQAPGKERELVAAINTGGGSKYYADSVKGRFTISRDNAKNTVYLQMNSLKPEDTAVYYCAASVYHYGPLYYWGQGTQVTVSS | low polyreactivity
QVHLVESVGGLVQAGGSLRLSSAASGIIFRSNAMGWYRQAPGKERELVAAISSRGSSTNYADSVKGRFTISRDNAKNTVYLQMNSLNPEDTAVYYCNARGSRVDQTESEYWGQGTQVTVSS | high polyreactivity
QVHLVESWGGLVQAGGSLRLSCAASGRTFWKYAMGWYRQAPWKDRVLVAAITASGARTYYADSVKGRFSISRDNGKNTVYLQMNSLKPEDTSVYYCNAGSVSDRQMDYWGQGTQVTVSS | low polyreactivity
QVHLVESWGGLVQAGGSLRLSCSASGITFDEYTIGWYRQAPGKERELVAAIDSDGSTTYADSVKVRFTISRDNAKNTVYLQMNILKPEDTEVYYCNAEHGDFCWHYLLYDYDYWGQGTQVTVSS | low polyreactivity
QVHLVETGGGLVQAGGSLRISCAASGFTFSRYAMVWYRQAPGKERELVAAITSRGGSTYYADSVKGRFTISRDNAKNTVYLQMNSLKPEDTAFYYCAASGRNRKDGLYEYYYWGQGTQVTVSS | high polyreactivity
QVHLVETVRGLLQAGGSLRISCAASGRSFKRYAMGWYRQAPGKERELVAAITRSGGSTYYADSVKGRFTISRDNAKNTVYLQMNSLKPEDTAVYYCATRSYNNELEYWGQGSQVTVSS | high polyreactivity
QVHLVVSGGGLVQAGGSLRLSCAASGLTIWYYAMGWYRQAPGKESEFVAAITSRGGDTYYADSVKGRFTISRDNAKNTVYLQMNSLKPEDTAVYYCAVRPRYYGTYRYYYWGQGTQVTVSS | high polyreactivity
QVHSVESGGGLVQAGGSLRLSCSASGIIFYSYAMGWYRQAPGKERELVAGITIVGSTIYADSVKGRFTISRDNPKTTVYLQMISLKAEATAVYYCNKADLHFIEMDYWGQATQVTVSS | low polyreactivity
QVHVVESGGGLVQAGVSLLLSCAASGRTFYRNAMGWYRQAPGKERELVAAISSRGGSTYYADSVKGRFTISRDNAKNTVYLQMNSLKPEDTAVYYCAANYGYGGDYDYWVQGTQVTVSS | high polyreactivity
QVKLEESGGGLVQAGGSLRLSCAASGSTFRAYTMGWYRQAPAKEREFVAAISRSGGSTFYADSVKGRFTISRDYAKNTVYLQMNSLKPEDNAVYYCAASYRYSASYYWGEGTQVTVSS | high polyreactivity
QVKLEESGGRLVQAGGTLRLRCAASGIIYRFYTIGWYRQAPGKERELVAAIRSGGRTYYADSVKGRFTISRDNAKNTVYLQINSLKPEDSAVYYCAKEPSRYSRYNYWGQGTQVTVSS | high polyreactivity
QVKLGESGGGLVQAGGSLRLSCAASGSILEFNAKGWYRQAPGKERELVAGITRDGGTTYADSVKGRFTISRDNAKNNVYFQMNSLKPEDNAVYYCAGTYYFSRWDLYGYWGHGTQVTVSS | low polyreactivity
QVKLKESVGGLVQAGGSLRLSCAASGSISATGNMGWYRQAPGEERELVAAINFGSNTYYADSVKGRFTISRDNAKNTVYLQKSGLKPEDTAVYYCAVDGWYVGPYYYWGQGTQVTVSS | high polyreactivity
QVKLQESGGGLVQAGGSLRLSCAASGYIFLHYYMGWYRQAPGKEREFVAGITSGTNTNYADSVKGRFTIRDNAKNTVYLQMNSLKPEDTAVCYCAVTYPYWGDYTYWGQGTQVTVSS | low polyreactivity
QVKLVDSGGGLVQAGGILRLSCAASGRIFSDYAMGWYRQAPGKERELVATITSGDSTNYADSVKGRFTISRDNAKNTVYLQMNSLKPEDTAVYYCNADRVYVRGRFTYDYWGQGTQVTVSS | low polyreactivity
